According to patent US20040091974A1 (KIRIN BEER, published 2004):
Each block holds one binder with its values, some of them ahead of it. cellulose membrane = peptide bound to a cellulose membrane through the C-terminus

Assays:
[1] = molecular target: T1, 13-mer peptide, amino acids 61 to 73 of the HLA-DR β chain (DRB1*15011) (human); experiment: SPOT 13-mer peptide array on cellulose membrane, chemiluminescence
T1 peptide: Ac-WNSQKDILEQARA-{cellulose membrane}
Description: (§1) The epitope of each antibody was analyzed by Western blotting in accordance with a conventional technique. In simple terms, a cellulose or PVDF membrane was blocked with Block Ace (Yukijirushi), etc., each antibody was allowed to react therewith at 1 μg/mL as a primary antibody and at 0.5 μg/mL as a secondary antibody using […], the HRP-labeled anti-human antibody (e.g., DAKO) was allowed to react therewith, and the chemiluminescence was detected using a chemiluminescent reagent (e.g., ECL Western blotting detection reagent, Amersham Bioscience) and a chemiluminescence detector (e.g., LAS-1000, Fuji Film).
(§2) The subsequent reaction was carried out based on conventional Western blot analysis (see, for example, Reineke, U. et al., (2001), “Epitope mapping with synthetic peptides prepared by SPOT synthesis.” Antibody Engineering (Springer Lab Manual) Eds.: Kontermann/Dubel, 433459). In the analysis, LumilmagerTM (Boehringer-Mannheim) was used to represent the color intensity in each spot by numerical values.

[2] = molecular target: T2, 13-mer peptide, amino acids 65 to 77 of the HLA-DR β chain (DRB1*15011) (human); experiment: as above
T2 peptide: Ac-KDILEQARAAVDT-{cellulose membrane}
Description: as §1, §2

[3] = molecular target: T3, SEQ ID NO 43 (human); experiment: alanine-substituted 61-73 peptide spots, chemiluminescence
T3 construct: The entry already carries the substitution
T3 peptide: Ac-WNSQKDLLEQRRG-{cellulose membrane}
Description: as §1, §2
(§3) Further, 12 peptides (SEQ ID Nos: 40 to 51) in which each amino acid has been substituted with alanine ([…] if it is originally alanine) were subjected to Western blotting under similar conditions. In the analysis, LAS2000 and ImageGauge analyzing software (Fuji Photo Film) were used to represent the color intensity in each spot by numerical values.

[4] = molecular target: T4, SEQ ID NO 44 (human); experiment: as above
T4 construct: The entry already carries the substitution
T4 peptide: Ac-ANSQKDLLEQRRA-{cellulose membrane}
Description: as §1, §2, §3

[5] = molecular target: T5, SEQ ID NO 40 (human); experiment: as above
T5 construct: The entry already carries the substitution
T5 peptide: Ac-WNSQKDALEQRRA-{cellulose membrane}
Description: as §1, §2, §3

[6] = molecular target: T6, SEQ ID NO 48 (human); experiment: as above
T6 construct: The entry already carries the substitution
T6 peptide: Ac-WNSQADLLEQRRA-{cellulose membrane}
Description: as §1, §2, §3

[7] = molecular target: T7, SEQ ID NO 51 (human); experiment: as above
T7 construct: The entry already carries the substitution
T7 peptide: Ac-WNSQKDLLEQRAA-{cellulose membrane}
Description: as §1, §2, §3

[8] = molecular target: T8, SEQ ID NO 50 (human); experiment: as above
T8 construct: The entry already carries the substitution
T8 peptide: Ac-WNSQKDLLAQRRA-{cellulose membrane}
Description: as §1, §2, §3

[9] = molecular target: T9, SEQ ID NO 49 (human); experiment: as above
T9 construct: The entry already carries the substitution
T9 peptide: Ac-WNSQKALLEQRRA-{cellulose membrane}
Description: as §1, §2, §3

[10] = molecular target: T10, SEQ ID NO 41 (human); experiment: as above
T10 construct: The entry already carries the substitution
T10 peptide: Ac-WNSQKDLLEARRA-{cellulose membrane}
Description: as §1, §2, §3

[11] = molecular target: T11, SEQ ID NO 45 (human); experiment: as above
T11 construct: The entry already carries the substitution
T11 peptide: Ac-WASQKDLLEQRRA-{cellulose membrane}
Description: as §1, §2, §3

[12] = molecular target: T12, SEQ ID NO 42 (human); experiment: as above
T12 construct: The entry already carries the substitution
T12 peptide: Ac-WNSQKDLLEQARA-{cellulose membrane}
Description: as §1, §2, §3

[13] = molecular target: T13, SEQ ID NO 46 (human); experiment: as above
T13 construct: The entry already carries the substitution
T13 peptide: Ac-WNAQKDLLEQRRA-{cellulose membrane}
Description: as §1, §2, §3

[14] = molecular target: T14, SEQ ID NO 47 (human); experiment: as above
T14 construct: The entry already carries the substitution
T14 peptide: Ac-WNSAKDLLEQRRA-{cellulose membrane}
Description: as §1, §2, §3

[15] = molecular target: T15, SEQ ID NO 26 (human); experiment: polymorphic 61-73 peptide spots, chemiluminescence
T15 peptide: Ac-WNSQKDFLEDERA-{cellulose membrane}
Description: as §1
(§4) The subsequent reaction was carried out based on conventional Western blot analysis (see, for example, Reineke, U. et al., (2001), “Epitope mapping with synthetic peptides prepared by SPOT synthesis.” Antibody Engineering (Springer Lab Manual) Eds.: Kontermann/Dubel, 433459). In the analysis, LumilmagerTM (Boehringer-Mannheim) was used to represent the color intensity in each spot by numerical values. […]

[16] = molecular target: T16, SEQ ID NO 31 (human); experiment: polymorphic 61-73 peptide spots, chemiluminescence
T16 peptide: Ac-WNSQKDILEDRRG-{cellulose membrane}
Description: as §1, §4

[17] = molecular target: T17, SEQ ID NO 39 (human); experiment: polymorphic 61-73 peptide spots, chemiluminescence
T17 peptide: Ac-WNSQKDLLEDERA-{cellulose membrane}
Description: as §1, §4

[18] = molecular target: T18, SEQ ID NO 29 (human); experiment: polymorphic 61-73 peptide spots, chemiluminescence
T18 peptide: Ac-WNSQKDILEQKRG-{cellulose membrane}
Description: as §1, §4

[19] = molecular target: T19, SEQ ID NO 38 (human); experiment: polymorphic 61-73 peptide spots, chemiluminescence
T19 peptide: Ac-WNSQKDLLERRRA-{cellulose membrane}
Description: as §1, §4

[20] = molecular target: T20, SEQ ID NO 33 (human); experiment: polymorphic 61-73 peptide spots, chemiluminescence
T20 peptide: Ac-WNSQKDILEQARA-{cellulose membrane}
Description: as §1, §4

[21] = molecular target: T21, SEQ ID NO 37 (human); experiment: polymorphic 61-73 peptide spots, chemiluminescence
T21 peptide: Ac-WNSQKDLLEDRRA-{cellulose membrane}
Description: as §1, §4

[22] = molecular target: T22, SEQ ID NO 25 (human); experiment: polymorphic 61-73 peptide spots, chemiluminescence
T22 peptide: Ac-WNSQKDFLERRRA-{cellulose membrane}
Description: as §1, §4

[23] = molecular target: T23, SEQ ID NO 32 (human); experiment: polymorphic 61-73 peptide spots, chemiluminescence
T23 peptide: Ac-WNSQKDILEDKRA-{cellulose membrane}
Description: as §1, §4

[24] = molecular target: T24, SEQ ID NO 30 (human); experiment: polymorphic 61-73 peptide spots, chemiluminescence
T24 peptide: Ac-WNSQKDILEDRRA-{cellulose membrane}
Description: as §1, §4

[25] = molecular target: T25, SEQ ID NO 36 (human); experiment: polymorphic 61-73 peptide spots, chemiluminescence
T25 peptide: Ac-WNSQKDLLEQKRG-{cellulose membrane}
Description: as §1, §4

[26] = molecular target: T26, SEQ ID NO 24 (human); experiment: polymorphic 61-73 peptide spots, chemiluminescence
T26 peptide: Ac-WNSQKDFLEDRRA-{cellulose membrane}
Description: as §1, §4

[27] = molecular target: T27, SEQ ID NO 27 (human); experiment: polymorphic 61-73 peptide spots, chemiluminescence
T27 peptide: Ac-WNSQKDFLEQARA-{cellulose membrane}
Description: as §1, §4

[28] = molecular target: T28, SEQ ID NO 35 (human); experiment: polymorphic 61-73 peptide spots, chemiluminescence
T28 peptide: Ac-WNSQKDLLEQARA-{cellulose membrane}
Description: as §1, §4

[29] = molecular target: T29, SEQ ID NO 34 (human); experiment: polymorphic 61-73 peptide spots, chemiluminescence
T29 peptide: Ac-WNSQKDLLEQRRA-{cellulose membrane}
Description: as §1, §4

[30] = molecular target: T30, SEQ ID NO 28 (human); experiment: polymorphic 61-73 peptide spots, chemiluminescence
T30 peptide: Ac-WNSQKDILEDERA-{cellulose membrane}
Description: as §1, §4

- binding result [1]: binds
B1: HD4 (antibody, IgG1, V domains shown)
VH: EVQLLESGGGLVQPGGSLRLSCAASGFTFSSYAMTWVRQAPGKGLEWVSGISGGGDSTYYADSVKGRFTISRDNSKNTLYLQMNSLRAEDTAVYYCARDHGSGSYYPYWFDYWGQGTLVTVSS
VL: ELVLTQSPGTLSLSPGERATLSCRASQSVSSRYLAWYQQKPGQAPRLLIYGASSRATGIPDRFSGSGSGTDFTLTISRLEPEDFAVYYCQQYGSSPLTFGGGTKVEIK
notes: also called antibody produced from the hybridoma HD4 (FERM BP-7771)

- binding result [1]: binds
- binding result [2]: binds
- binding result [3]: binds
- binding result [4]: binds
- binding result [5]: binds
- binding result [6]: no binding (tested: 1 µg/mL)
- binding result [7]: no binding (tested: 1 µg/mL)
- binding result [8]: no binding (tested: 1 µg/mL)
- binding result [9]: no binding (tested: 1 µg/mL)
- binding result [10]: binds
- binding result [11]: binds
- binding result [12]: binds
- binding result [13]: binds
- binding result [14]: binds
- binding result [15]: binds
- binding result [16]: binds
- binding result [17]: binds
- binding result [18]: binds
- binding result [19]: binds
- binding result [20]: binds
- binding result [21]: binds
- binding result [22]: binds
- binding result [23]: binds
- binding result [24]: binds
- binding result [25]: binds
- binding result [26]: binds
- binding result [27]: binds
- binding result [28]: binds
- binding result [29]: binds
- binding result [30]: binds
B2: HD8 (antibody, IgG2, V domains shown)
VH: QVQLQHSGPGLVKPSQTLSLTCAISGDSVSSNSASWNWIRQSPSRGLEWLGRTYYRSKWYNDYAVSVKSRIVINPDTSKNQFSLQLNSVTPEDTAVYYCARENFYGSETCHKKYYCYGMDVWGQGTTVTVSS
VL: AIQLTQSPSSLSASVGDRVTITCRASQGISSALAWYQQKPGKAPKLLIYDASSLESGVPSRFSGSGSGTDFTLTISSLQPEDFATYYCQQFNSFPLTFGGGTKVEIK
notes: also called antibody produced from the hybridoma HD8 (FERM BP-7773)
